Consider three molecules from US20230192886A1 (published 2023).

Sequences and labels used below:
T1: PRAME (PRAME-004) peptide on HLA-A*02:01 (human)
T1 peptide: SLLQHLIGL

B1: R17P1D7 (TCR, V domains shown)
Valpha: AQTVTQSQPEMSVQEAETVTLSCTYDTSESDYYLFWYKQPPSRQMILVIRQEAYKQQNATENRFSVNFQKAAKSFSLKISDSQLGDAAMYFCAYRWAQGGSEKLVFGKGTKLTVNP
Vbeta: EADIYQTPRYLVIGTGKKITLECSQTMGHDKMYWYQQDPGMELHLIHYSYGVNSTEKGDLSSESTVSRIRTEHFPLTLESARPSHTSQYLCATELWSSGGTGELFFGEGSRLTVL
B2: R16P1E8 (TCR, V domains shown)
Valpha: QKEVEQDPGPLSVPEGAIVSLNCTYSNSAFQYFMWYRQYSRKGPELLMYTYSSGNKEDGRFTAQVDKSSKYISLFIRDSQPSDSATYLCAMSEAAGNKLTFGGGTRVLVKP
Vbeta: EAGVAQSPRYKIIEKRQSVAFWCNPISGHATLYWYQQILGQGPKLLIQFQNNGVVDDSQLPKDRFSAERLKGVDSTLKIQPAKLEDSAVYLCASSYTNQGEAFFGQGTRLTVV
B3: R17P1A9 (TCR, V domains shown)
Valpha: QKEVEQNSGPLSVPEGAIASLNCTYSDRGSQSFFWYRQYSGKSPELIMSIYSNGDKEDGRFTAQLNKASQYVSLLIRDSQPSDSATYLCAVLNQAGTALIFGKGTTLSVSS
Vbeta: DSGVTQTPKHLITATGQRVTLRCSPRSGDLSVYWYQQSLDQGLQFLIQYYNGEERAKGNILERFSAQQFPDLHSELNLSSLELGDSALYFCASSAETGPWLGNEQFFGPGTRLTVL

This test has as its target T1, PRAME (PRAME-004) peptide on HLA-A*02:01. Briefly: cytokine release.
As to B1, the binding result is “recognises”.

For the molecule B2, the binding result was “recognises”.

In the case of B3, the binding result is reported as “recognises”.
